Measured values from US12269902B2, “Peptide compounds and peptide conjugates for the treatment of cancer through receptor-mediated chemotherapy” (TRANSFERT PLUS, S.E.C., priority 2015, dated 2025).
Residues, ends and D or L forms follow the SMILES beside them. *: point of attachment. X1 = CC(=O)O[C@@]12CO[C@@H]1C[C@H](O)[C@@]1(C)C(=O)[C@H](O)C3=C(C)[C@@H](OC(=O)[C@H](OC(=O)CCC(=O)*)[C@@H](NC(=O)OC(C)(C)C)c4ccccc4)C[C@@](O)([C@@H](OC(=O)c4ccccc4)[C@H]21)C3(C)C

Key:
[1] = system: ES-2 ovarian cancer cells; test: [3H]-Thymidine incorporation cell proliferation assay, ES-2; format: cell-based; settings: ES-2 (Ovary)
Protocol: (§1) The effect of the Docetaxel-Katana peptide conjugate on various cell line proliferations was evaluated and compared to unconjugated Docetaxel (Table 4). IC50 values obtained for the Docetaxel-Katana peptide conjugate were very similar to those of Docetaxel in the cancer cells tested.
(§2) The phytochemical Curcumin, unconjugated and conjugated, was also tested on cancer cell proliferation (FIG. 28). Breast cancer cells (MDA-MB231) were incubated with increasing concentrations of KBC106 or curcumin. After 72 hrs, thymidine incorporation assay was performed to assess the anti-proliferative properties of both molecules. IC50 values were extracted from the anti-proliferative curves. […] Proliferation assay was also performed using different types of cancer cells (ovarian, breast, skin and colorectal cancer cells). IC50 values were calculated from the anti-proliferation curves. In all cases, the Curcumin conjugate (KBC106) had stronger anti-proliferative activity (9-100 fold) than unconjugated Curcumin, as shown in Table 6 below.
(§3) Cancer cells were cultured in 96-well white plates (Perkin Elmer). They were synchronized for 24 hours in serum-deprived medium. After incubation of cells with unconjugated drugs (docetaxel, cabazitaxel, doxorubicin) or with drug-Katana peptide conjugates for 2 or 3 days, all media was aspirated and cells were pulse-labeled for 4 hours at 37° C./[…]/5% CO2 with media containing 2.5 μCi/mL [methyl-3H] thymidine (Perkin Elmer). Cells were washed, fixed, and dried before addition of scintillation fluid (Microscint 0, Perkin Elmer). After 24 hours, cell-associated tritium was quantified by counting on a plate reader (TopCount, Perkin Elmer). Incorporated [3H] thymidine was plotted for each drug concentration.

[2] = system: MDA-MB-231 breast cancer cells; test: cells
Protocol: Breast cancer cells (MDA-MB231) were incubated with increasing concentrations of KBC106 or curcumin. After 72 hrs, thymidine incorporation assay was performed to assess the anti-proliferative properties of both molecules. IC50 values were extracted from the anti-proliferative curves.
The phytochemical Curcumin, unconjugated and conjugated, was also tested on cancer cell proliferation (FIG. 28). Breast cancer cells (MDA-MB231) were incubated with increasing concentrations of KBC106 or curcumin. After 72 hrs, thymidine incorporation assay was performed to assess the anti-proliferative properties of both molecules. IC50 values were extracted from the anti-proliferative curves. […] Proliferation assay was also performed using different types of cancer cells (ovarian, breast, skin and colorectal cancer cells). IC50 values were calculated from the anti-proliferation curves.
as §3

[3] = system: SK-MEL-28 skin cancer cells; test: [3H]-Thymidine incorporation cell proliferation assay, SK-MEL-28; format: cell-based
Protocol: as §1, §2, §3

[4] = system: A-375 skin cancer cells; test: [3H]-Thymidine incorporation cell proliferation assay, A-375; format: cell-based
Protocol: as §1, §2, §3

[5] = system: HCC-1569 breast cancer cells; test: cells; format: cell-based; settings: Homo sapiens, HCC1569; HCC-1569 (HER2+; Herceptin resistant); Table 6
Protocol: as §2, §3

[6] = system: HCC-1954 breast cancer cells; test: cells; format: cell-based; settings: Homo sapiens, HCC1954; HCC-1954 (HER2+; Lapatinib resistant); Table 6
Protocol: as §2, §3

[7] = system: HT-29 colorectal cancer cells; test: cells; format: cell-based; settings: Homo sapiens, Table 6
Protocol: as §2, §3

[8] = system: cancer cells; test: Apoptosis by fluorescence microscopy (alpha-tubulin, DAPI); format: cell-based; settings: fluorescent microscopy
Protocol: In FIG. 30, it was further evaluated whether the Curcumin conjugate (KBC106) induces cancer cell apoptosis. Cancer cells were incubated with KBC106 and curcumin. First column, uptake for both molecules can be monitored by fluorescent microscopy. Higher accumulation of fluorescence was detected for KBC1006 indicating a better cell internalization for the conjugate. Curcumin accumulation was barely visible in these cancer cells. […] In the third column, cell nucleus was labelled with the fluorescent dye DAPI.

[9] = target: P-gp (MDR1) (Homo sapiens, UniProt P08183); test: Drug accumulation in MDCK-MDR1 cells with or without Cyclosporin A; settings: 50 nM, 1 hr, 37° C., CsA 10 μM
Protocol: 6A. […] 6B. MDCK-MDR1 cells were incubated with 50 nM of either [^14C]-Doxorubicin or [^125I]-Katana peptide-Doxorubicin conjugate (KBB106) for 1 hr at 37° C. in the presence or absence of CsA (10 μM). After the incubation, cells were washed and radioactivity accumulated in cells was quantified. The results were expressed in terms of uptake fmol/mg of protein.
In order to determine whether the anticancer drug-Katana-peptide conjugates could also be P-gp substrates, MDCK-transfected cells with human MDR1 were used (MDCK-MDR1).
Cells were washed three times with PBS and preincubated for 30 min at 37° C. in culture medium without serum with or without the P-gp inhibitor Cyclosporin A (10 μM). Radiolabelled molecules (50 nM) were then added for 60 min. The cells were rapidly washed three times with ice-cold PBS and then lysed in 500 µL of 0.1 M NaOH. The amount of radiolabelled molecules retained in the cells was counted by β-scintillation counting (Packard model 1900 TR). An aliquot of cell lysate was used in parallel to determine cellular protein concentration.

[10] = Plasma pharmacokinetics of radiolabeled compounds in mice; format: in vivo; settings: mice iv, Docetaxel 2.2 mg/kg, KBA105 5 mg/kg
Protocol: FIG. 20 is a graph showing concentration of unconjugated and conjugated Docetaxel as a function of time. Mice were injected iv with radiolabeled [^3H]-Docetaxel or radiolabeled [^125I]-KBA105 at an equivalent dose of Docetaxel (Docetaxel=2.2 mg/kg; KBA105=5 mg/kg). Plasma samples were collected at different time points and radioactivity quantified. Results are expressed in terms of KBA105 or Docetaxel concentration in plasma as a function of time. Area under the curve for the time period (AUC1-24) was estimated for KBA105 and Docetaxel using GraphPad Prism software. Ratio between AUC1-24 for KBA105 and Docetaxel was calculated to be around 35.
To evaluate the impact of the drug conjugation to Katana Biopharma peptide on drug pharmacokinetics and tissue distribution, mice were injected with [^125I]-Docetaxel-Katana peptide conjugate. Plasma was collected at different times (FIG. 19A). Radioactivity associated with plasma was quantified and pharmacokinetic parameters were determined. […] In FIG. 20, plasma concentration of Docetaxel-Katana peptide conjugate was compared to that of unconjugated Docetaxel after iv bolus injection.
After radiolabeling free iodine was remove. […] Plasma was collected at the indicated times.

[11] = Tissue distribution of radiolabeled compounds in mice
Protocol: CD-1 mice were injected with the radiolabeled conjugate at 5 mg/kg via iv bolus injections (21A) or […] of radiolabeled Docetaxel (21B). At the indicated times (1 h, 6 h, 24 h) mice were sacrificed and perfused with saline for 8 min. Tissues were then collected and radioactivity was measured. Results are expressed in terms of ng/g of tissue.
At the indicated times (1, 6 and 24 hours), whole body perfusion was performed for 8 min with saline at a flow rate of 8 ml/min after […] hours iv bolus injections.
After radiolabeling free iodine was remove. Mice were injected with Docetaxel-[^125I]-Katana peptide conjugate at 5 mg/kg. Plasma was collected at the indicated times. After 1, 2 and 24 hours some mice were perfused with saline, sacrificed and tissues were collected. Radioactivity in the plasma and tissues were measured in a radioactivity counter and results were calculated and expressed in terms of […] for the plasma or ng/g of tissues.

[12] = system: SKOV3 cancer cells; test: SKOV3 luciferase subcutaneous xenograft tumour model (Docetaxel, KBA-105); settings: mice, treatments at 20 mg/kg/week as printed (equivalent dose of Docetaxel)
Protocol: Mice were implanted in the flank with SKOV3 cancer cells. Tumor growth was monitored by luminescence using the Near Infrared imaging system from Carestream.
Results are expressed in terms of luminescence intensity as a function of post-treatment days.
To further evaluate the in vivo efficacy of the Katana-drug conjugate, SKOV3 cancer cells expressing luciferase were implanted in the mouse flank. […] Tumour imaging was performed on different days by injecting the luciferase substrate luciferin and by using the Xtreme imaging system from Carestream.
Luminescence was then quantified and plotted as a function of days after implantation (FIG. 23).
SKOV3 cancer cells (2.5×10^6 cells) expressing luciferase were implanted in the right flank of mice. Tumour growth was monitored using near infrared (NiR) imaging system from Carestream by injecting the luciferase substrate luciferin. […] Luminescence associated with tumour growth of SKOV3/Luc cancer cells was quantified as a function of post-treatment days with the instrument software.

P-gp (MDR1), sequence (P08183 whole entry): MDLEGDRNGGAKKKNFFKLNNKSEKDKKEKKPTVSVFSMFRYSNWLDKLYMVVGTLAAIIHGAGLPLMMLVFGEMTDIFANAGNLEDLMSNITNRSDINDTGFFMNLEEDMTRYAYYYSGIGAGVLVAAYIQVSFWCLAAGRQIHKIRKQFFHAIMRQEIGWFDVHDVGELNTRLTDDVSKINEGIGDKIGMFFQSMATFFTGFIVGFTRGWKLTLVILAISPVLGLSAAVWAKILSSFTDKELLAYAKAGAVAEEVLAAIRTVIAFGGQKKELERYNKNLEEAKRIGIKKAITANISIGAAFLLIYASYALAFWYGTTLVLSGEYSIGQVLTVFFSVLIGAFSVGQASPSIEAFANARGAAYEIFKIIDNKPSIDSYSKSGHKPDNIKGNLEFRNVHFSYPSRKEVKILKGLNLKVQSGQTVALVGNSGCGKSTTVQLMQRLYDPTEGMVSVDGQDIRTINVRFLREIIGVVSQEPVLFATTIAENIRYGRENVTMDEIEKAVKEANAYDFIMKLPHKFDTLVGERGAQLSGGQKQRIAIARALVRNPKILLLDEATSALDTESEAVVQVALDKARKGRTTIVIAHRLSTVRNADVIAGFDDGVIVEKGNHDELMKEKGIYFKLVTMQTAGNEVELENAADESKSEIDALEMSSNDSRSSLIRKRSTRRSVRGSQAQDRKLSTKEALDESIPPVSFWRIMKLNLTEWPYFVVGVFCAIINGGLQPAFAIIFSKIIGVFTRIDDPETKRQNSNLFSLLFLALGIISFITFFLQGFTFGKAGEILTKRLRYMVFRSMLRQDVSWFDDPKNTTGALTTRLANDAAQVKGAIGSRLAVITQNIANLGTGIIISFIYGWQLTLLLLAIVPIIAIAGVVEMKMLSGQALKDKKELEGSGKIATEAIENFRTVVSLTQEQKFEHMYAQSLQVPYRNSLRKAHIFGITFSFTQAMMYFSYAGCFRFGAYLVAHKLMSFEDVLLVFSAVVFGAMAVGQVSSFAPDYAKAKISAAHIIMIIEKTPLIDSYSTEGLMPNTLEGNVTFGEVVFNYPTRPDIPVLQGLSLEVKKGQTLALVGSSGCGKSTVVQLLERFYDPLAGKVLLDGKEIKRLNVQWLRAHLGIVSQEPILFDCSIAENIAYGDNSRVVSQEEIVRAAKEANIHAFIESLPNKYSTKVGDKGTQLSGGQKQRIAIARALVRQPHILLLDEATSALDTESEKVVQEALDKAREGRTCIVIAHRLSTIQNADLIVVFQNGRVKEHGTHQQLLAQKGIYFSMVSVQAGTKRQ

## COc1cc(/C=C/C(=O)CC(=O)/C=C/c2ccc(O)c(OC)c2)ccc1O [Curcumin, curcumin]
[1]; Table 6
  IC50: 14.4 µM
[2]; Homo sapiens, MDA-MB-231, 72 h
  IC50: 13.4 µM
[3]; Homo sapiens, SK-MEL-28, Table 6
  IC50: 12.5 µM
[4]; Homo sapiens, A-375, Table 6
  IC50: 20.9 µM
[5]
  IC50: 14.8 µM
[6]
  IC50: 12 µM
[7]
  IC50: 51.3 µM
[8]
  induction of apoptosis (nucleus fragmentation, DAPI): does not

## CSCC[C@H](NC(=O)[C@H](CC(N)=O)NC(=O)[C@H](CCCNC(=N)N)NC(=O)[C@@H](NC(=O)CNC(=O)[C@H](C)NC(=O)[C@H](CCCCNC(=O)CCC(=O)O[C@@H](C(=O)O[C@H]1C[C@@]2(O)[C@@H](OC(=O)c3ccccc3)[C@@H]3[C@]4(OC(C)=O)CO[C@@H]4C[C@H](O)[C@@]3(C)C(=O)[C@H](O)C(=C1C)C2(C)C)[C@@H](NC(=O)OC(C)(C)C)c1ccccc1)NC(=O)[C@H](C)NC(=O)[C@H](CCCNC(=N)N)NC(=O)[C@@H](NC(=O)CNC(C)=O)C(C)C)C(C)C)C(=O)N[C@@H](Cc1ccccc1)C(=O)N[C@@H](CCCCNC(=O)CCC(=O)O[C@@H](C(=O)O[C@H]1C[C@@]2(O)[C@@H](OC(=O)c3ccccc3)[C@@H]3[C@]4(OC(C)=O)CO[C@@H]4C[C@H](O)[C@@]3(C)C(=O)[C@H](O)C(=C1C)C2(C)C)[C@@H](NC(=O)OC(C)(C)C)c1ccccc1)C(=O)N[C@@H](CO)C(=O)N[C@@H](CCC(=O)O)C(=O)N[C@@H](CO)C(=O)N[C@@H](Cc1ccc(O)cc1)C(=O)O [KBA-105] (Ac-GVRAK(X1)AGVRNMFK(X1)SESY-OH; C-terminus assumed)
[1]; Table 4, 2 or 3 days
  IC50: 0.0007 µM
[2]; MDA-MB-231 (Breast), Table 4, 2 or 3 days
  IC50: 0.00103 µM
[3]; SK-MEL-28 (Skin), Table 4, 2 or 3 days
  IC50: 9e-05 µM
[4]; A-375 (Skin), Table 4, 2 or 3 days
  IC50: 0.00043 µM
[9]
  effect of CsA on accumulation: lack of CsA effect
[10]
  Ratio between AUC1-24 for KBA105 and Docetaxel: around 35
[11]; Brain
  Ratio (Estimated Docetaxel/Docetaxel) (AUC1-24): 21.3
  Ratio KBA105/Docetaxel (AUC1-24): 48.3
[11]; Heart
  Ratio (Estimated Docetaxel/Docetaxel) (AUC1-24): 4.5
  Ratio KBA105/Docetaxel (AUC1-24): 10.3
[11]; Kidney
  Ratio (Estimated Docetaxel/Docetaxel) (AUC1-24): 5.3
  Ratio KBA105/Docetaxel (AUC1-24): 12.0
[11]; Liver
  Ratio (Estimated Docetaxel/Docetaxel) (AUC1-24): 26.4
  Ratio KBA105/Docetaxel (AUC1-24): 60
[11]; Lung
  Ratio (Estimated Docetaxel/Docetaxel) (AUC1-24): 221
  Ratio KBA105/Docetaxel (AUC1-24): 500
[11]; Mammary
  Ratio (Estimated Docetaxel/Docetaxel) (AUC1-24): 1.5
  Ratio KBA105/Docetaxel (AUC1-24): 3.3
[11]; Ovary
  Ratio (Estimated Docetaxel/Docetaxel) (AUC1-24): 0.7
  Ratio KBA105/Docetaxel (AUC1-24): 1.6
[11]; Spleen
  Ratio (Estimated Docetaxel/Docetaxel) (AUC1-24): 25.0
  Ratio KBA105/Docetaxel (AUC1-24): 24.9
[12]
  effect on body weight: unaffected
